Data on two substances can be found in article PMC2187783.

Assay [1] addresses PR97 chimeric class II beta chain (beta1 domain of DP, beta2 domain of DR) (human).
Assay [2] has as its target RP97 chimeric class II beta chain (beta1 domain of DR, beta2 domain of DP) (human).

As for “HLA-DR alpha chain (from UniProt P01903 26-254) (natural protein)”, the figures for the Table II, DRa Percent: percentage of cells binding the mAb SG465 in assay [1] and in assay [2] were 0% and 54%, respectively.

In the case of “HLA-DP alpha chain (from UniProt P20036 29-260) (natural protein)”, the Table II, DPa Percent: percentage of cells binding the mAb SG465 in assay [1] is 22%; in assay [2] it was 0%.
